Measurements as given in publication PMC2879411.
Values belong to the substance of their own block, whether it stands above or below them.

Columns and labels:
[1] = biological target: filamentous actin (F-actin), rabbit skeletal muscle (rabbit) (UniProt P68135)
[2] = biological target: GST-fused Eps8(648–821) wild type (mouse) (UniProt Q08509); assay: SEC + other: glycerol gradient sedimentation; Superdex200 10/30 and 10%–40% glycerol gradients (100 mM Tris-HCl pH 8, 500 mM NaCl, 1 mM dithiothreitol, 1 mM EDTA) of purified GST-Eps8(648–821) proteins
[3] = biological target: AEDANS-labeled monomeric actin (rabbit) (UniProt P68135); assay: other fluorescence titration; competition: 1.5 µM AEDANS-labeled actin, increasing Thymosin β4 with 0, 15 or 30 µM Eps8(648–821) or 0, 10 or 15 µM H1–H2; 0.1 M KCl and 1 mM MgCl2 (high salt); apparent constants
[4] = biological target: filamentous actin (F-actin), rabbit skeletal muscle (UniProt P68135); assay: inhibition of barbed end elongation from spectrin-actin seeds (pyrenyl-actin), fitted binding curve with 1:1 stoichiometry; details: 2 µM G-actin (10% pyrenyl-labeled)
[5] = biological target: filamentous actin (F-actin), rabbit skeletal muscle (rabbit) (UniProt P68135); remark: listed apart in the source
[6] = biological target: filamentous actin (F-actin), rabbit skeletal muscle (rabbit) (UniProt P68135); remark: listed apart in the source

Substance: GST-fused Eps8(648–821) wild type (from UniProt Q08509 648-821) (domain or fragment)
Kcap: barbed end elongation, wild type of Figure 6C [1]: 4 nM
Kcap: barbed end elongation, wild type of Figure 6D [1]: 16 nM
stoichiometry N [2]: 2

Substance: Thymosin β4 (peptide)
Kapp with 10 µM H1–H2 [3]: 6 µM
Kapp with 15 µM Eps8(648–821) [3]: 9 µM
Kapp with 15 µM H1–H2 [3]: 11 µM
Kapp with 30 µM Eps8(648–821) [3]: 14 µM
Kd [3]: 3000 nM

Substance: C-terminal fragment of Ce-EPS-8A (aa 714–917) fused to GST, wild type (domain or fragment)
Kcap of barbed end inhibition: elongation from spectrin-actin seeds with 2 µM G-actin (10% pyrenyl-labeled) [5]: 108 nM

Substance: C-terminal fragment of Ce-EPS-8A (aa 714–917) fused to GST, wild type ΔcapΔbund
other: Kcap [4]: > 4000 nM

Further lines, results first:

other: Kcap [4]: 980 nM
Substance: C-terminal fragment of Ce-EPS-8A (aa 714–917) fused to GST, wild type Δcap

Kcap: barbed end elongation from spectrin-actin seeds [6]: 700 nM
Substance: Eps8(648–821)-V689D-L693D (Eps8-Δcap) (from UniProt Q08509 648-821) (domain or fragment)

other: Kcap [4]: 205 nM
Substance: C-terminal fragment of Ce-EPS-8A (aa 714–917) fused to GST, wild type Δbund

Kcap: barbed end elongation [1]: 4 µM
Substance: GST-fused Eps8-ΔcapΔbund, double H1 and Villin-like motif mutant of Eps8(648–821) (from UniProt Q08509 648-821) (domain or fragment)
